B1: TR01H067-E2702GsKsc/GCH054-E2704sEpsc/L0212-k0 (bispecific antibody, human IgG4 S228P, kappa, N297A)
heavy 1: QVQLVESGGGLVQPGRSLRLSCAASGFTFSNAWMHWVRQAPGKGLEWVAQIKDKSQNYATYYAESVKGRFTISRDDSKNSLYLQMNSLKTEDTAVYYCRYVHYAASYGVDAWGQGTTVTVSSASTKGPSVFPLAPCSRSTSESTAALGCLVKDYFPEPVTVSWNSGALTSGVHTFPAVLQSSGLYSLSSVVTVPSSSLGTKTYTCNVDHKPSNTKVDKRVESKYGPPCPPCPAPEFRGGPKVFLFPPKPKDTLMISRTPEVTCVVVDVSQEDPEVQFNWYVDGVEVHNAKTKPREEQFASTYRVVSVLTVLHQDWLNGKEYKCKVSNKGLPSSIEKTISKAKGQPREPQVYTLPPSQKEMTKNQVSLTCLVKGFYPSDIAVEWESNGQPENNYKTTPPVLDSDGSFFLYSKLTVDKSRWQEGNVFSCSVMHEALHNRYTQKSLSLSP
heavy 2: QVQLVQSGAEVKKPGASVTVSCKASGYTFTDYEMHWIRQPPGEGLEWIGAIDGETPDTAYSEKFKGRVTLTADKSTSTAYMELSSLTSEDTAVYYCTRFYSYTYWGQGTLVTVSSASTKGPSVFPLAPCSRSTSESTAALGCLVKDYFPEPVTVSWNSGALTSGVHTFPAVLQSSGLYSLSSVVTVPSSSLGTQTYTCNVDHKPSNTKVDKRVESKYGPPCPPCPAPEFRGGPKVFLFPPKPKDTLMISRTPEVTCVVVDVSQEDPEVQFNWYVDGVEVHNAKTKPREEQFASTYRVVSVLTVLHQDWLNGKEYKCKVSNKGLPSSIEKTISKAKGQPREPQVYTLPPSQEEMTKNQVSLTCLVKGFYPSDIAVEWESNGQPENNYKTTPPVLDSDGSFFLYSKLTVDKSRWQEGNVFSCSVMHEALHNHYTQESLSLSP
light: DIVMTQSPLSLPVTPGEPASISCRPSQSPVHSNRNTYLHWYQQKPGQAPRLLIYKVSNRFSGVPDRFSGSGSGTDFTLKISRVEAEDVGVYYCYQGTQVPYTFGQGTKLEIKRTVAAPSVFIFPPSDEQLKSGTASVVCLLNNFYPREAKVQWKVDNALQSGNSQESVTEQDSKDSTYSLSSTLTLSKADYEKHKVYACEVTHQGLSSPVTKSFNRGEC
B2: TR01H084-E2702GsKsc/GCH065-E2704sEpsc/L0011-k0 (bispecific antibody, human IgG4 S228P, kappa, N297A)
heavy 1: QVQLVESGGGVVQPGGSLRLSCAASGFTFSNAWMHWVRQAPGKGLEWVAQIKDKSQNYATYYAESVKGRFTISRADSKNSIYLQMNSLKTEDTAVYYCRYVHYAAGYGVDIWGQGTTVTVSSASTKGPSVFPLAPCSRSTSESTAALGCLVKDYFPEPVTVSWNSGALTSGVHTFPAVLQSSGLYSLSSVVTVPSSSLGTKTYTCNVDHKPSNTKVDKRVESKYGPPCPPCPAPEFRGGPKVFLFPPKPKDTLMISRTPEVTCVVVDVSQEDPEVQFNWYVDGVEVHNAKTKPREEQFASTYRVVSVLTVLHQDWLNGKEYKCKVSNKGLPSSIEKTISKAKGQPREPQVYTLPPSQKEMTKNQVSLTCLVKGFYPSDIAVEWESNGQPENNYKTTPPVLDSDGSFFLYSKLTVDKSRWQEGNVFSCSVMHEALHNRYTQKSLSLSP
heavy 2: QVQLVQSGAEVKKPGASVTVSCKASGYTFTDYEMHWIRQPPGEGLEWIGAIDGPTPDTAYSEKFKGRVTLTADKSTSTAYMELSSLTSEDTAVYYCTRFYSYTYWGQGTLVTVSSASTKGPSVFPLAPCSRSTSESTAALGCLVKDYFPEPVTVSWNSGALTSGVHTFPAVLQSSGLYSLSSVVTVPSSSLGTQTYTCNVDHKPSNTKVDKRVESKYGPPCPPCPAPEFRGGPKVFLFPPKPKDTLMISRTPEVTCVVVDVSQEDPEVQFNWYVDGVEVHNAKTKPREEQFASTYRVVSVLTVLHQDWLNGKEYKCKVSNKGLPSSIEKTISKAKGQPREPQVYTLPPSQEEMTKNQVSLTCLVKGFYPSDIAVEWESNGQPENNYKTTPPVLDSDGSFFLYSKLTVDKSRWQEGNVFSCSVMHEALHNHYTQESLSLSP
light: DIVMTQSPLSLPVTPGEPASISCRSSQPLVHSNRNTYLHWYQQKPGQAPRLLIYKVSNRFSGVPDRFSGSGSGTDFTLKISRVEAEDVGVYYCGQGTQVPYTFGQGTKLEIKRTVAAPSVFIFPPSDEQLKSGTASVVCLLNNFYPREAKVQWKVDNALQSGNSQESVTEQDSKDSTYSLSSTLTLSKADYEKHKVYACEVTHQGLSSPVTKSFNRGEC
B3: TR01H113-E2702GsKsc/GCH065-E2704sEpsc/L0011-k0 (bispecific antibody, human IgG4 S228P, kappa, N297A)
heavy 1: QVQLVESGGGVVQPGGSLRLSCAASGFTFSNAWMHWVRQAPGKGLEWVAQIKDKSQNYATYVAESVKGRFTISRADSKNSIYLQMNSLKTEDTAVYYCRYVHYAAGYGVDIWGQGTTVTVSSASTKGPSVFPLAPCSRSTSESTAALGCLVKDYFPEPVTVSWNSGALTSGVHTFPAVLQSSGLYSLSSVVTVPSSSLGTKTYTCNVDHKPSNTKVDKRVESKYGPPCPPCPAPEFRGGPKVFLFPPKPKDTLMISRTPEVTCVVVDVSQEDPEVQFNWYVDGVEVHNAKTKPREEQFASTYRVVSVLTVLHQDWLNGKEYKCKVSNKGLPSSIEKTISKAKGQPREPQVYTLPPSQKEMTKNQVSLTCLVKGFYPSDIAVEWESNGQPENNYKTTPPVLDSDGSFFLYSKLTVDKSRWQEGNVFSCSVMHEALHNRYTQKSLSLSP
heavy 2: QVQLVQSGAEVKKPGASVTVSCKASGYTFTDYEMHWIRQPPGEGLEWIGAIDGPTPDTAYSEKFKGRVTLTADKSTSTAYMELSSLTSEDTAVYYCTRFYSYTYWGQGTLVTVSSASTKGPSVFPLAPCSRSTSESTAALGCLVKDYFPEPVTVSWNSGALTSGVHTFPAVLQSSGLYSLSSVVTVPSSSLGTQTYTCNVDHKPSNTKVDKRVESKYGPPCPPCPAPEFRGGPKVFLFPPKPKDTLMISRTPEVTCVVVDVSQEDPEVQFNWYVDGVEVHNAKTKPREEQFASTYRVVSVLTVLHQDWLNGKEYKCKVSNKGLPSSIEKTISKAKGQPREPQVYTLPPSQEEMTKNQVSLTCLVKGFYPSDIAVEWESNGQPENNYKTTPPVLDSDGSFFLYSKLTVDKSRWQEGNVFSCSVMHEALHNHYTQESLSLSP
light: DIVMTQSPLSLPVTPGEPASISCRSSQPLVHSNRNTYLHWYQQKPGQAPRLLIYKVSNRFSGVPDRFSGSGSGTDFTLKISRVEAEDVGVYYCGQGTQVPYTFGQGTKLEIKRTVAAPSVFIFPPSDEQLKSGTASVVCLLNNFYPREAKVQWKVDNALQSGNSQESVTEQDSKDSTYSLSSTLTLSKADYEKHKVYACEVTHQGLSSPVTKSFNRGEC
B4: TR01H082-E2702GsKsc/GCH065-E2704sEpsc/L0011-k0 (bispecific antibody, human IgG4 S228P, kappa, N297A)
heavy 1: QVQLVESGGGLVQPGRSLRLSCAASGFTFSNAWMHWVRQAPGKGLEWVAQIKDKSQNYATYYAESVKGRFTISRDDSKNSLYLQMNSLKTEDTAVYYCRYVHYAAGYGVDAWGQGTTVTVSSASTKGPSVFPLAPCSRSTSESTAALGCLVKDYFPEPVTVSWNSGALTSGVHTFPAVLQSSGLYSLSSVVTVPSSSLGTKTYTCNVDHKPSNTKVDKRVESKYGPPCPPCPAPEFRGGPKVFLFPPKPKDTLMISRTPEVTCVVVDVSQEDPEVQFNWYVDGVEVHNAKTKPREEQFASTYRVVSVLTVLHQDWLNGKEYKCKVSNKGLPSSIEKTISKAKGQPREPQVYTLPPSQKEMTKNQVSLTCLVKGFYPSDIAVEWESNGQPENNYKTTPPVLDSDGSFFLYSKLTVDKSRWQEGNVFSCSVMHEALHNRYTQKSLSLSP
heavy 2: QVQLVQSGAEVKKPGASVTVSCKASGYTFTDYEMHWIRQPPGEGLEWIGAIDGPTPDTAYSEKFKGRVTLTADKSTSTAYMELSSLTSEDTAVYYCTRFYSYTYWGQGTLVTVSSASTKGPSVFPLAPCSRSTSESTAALGCLVKDYFPEPVTVSWNSGALTSGVHTFPAVLQSSGLYSLSSVVTVPSSSLGTQTYTCNVDHKPSNTKVDKRVESKYGPPCPPCPAPEFRGGPKVFLFPPKPKDTLMISRTPEVTCVVVDVSQEDPEVQFNWYVDGVEVHNAKTKPREEQFASTYRVVSVLTVLHQDWLNGKEYKCKVSNKGLPSSIEKTISKAKGQPREPQVYTLPPSQEEMTKNQVSLTCLVKGFYPSDIAVEWESNGQPENNYKTTPPVLDSDGSFFLYSKLTVDKSRWQEGNVFSCSVMHEALHNHYTQESLSLSP
light: DIVMTQSPLSLPVTPGEPASISCRSSQPLVHSNRNTYLHWYQQKPGQAPRLLIYKVSNRFSGVPDRFSGSGSGTDFTLKISRVEAEDVGVYYCGQGTQVPYTFGQGTKLEIKRTVAAPSVFIFPPSDEQLKSGTASVVCLLNNFYPREAKVQWKVDNALQSGNSQESVTEQDSKDSTYSLSSTLTLSKADYEKHKVYACEVTHQGLSSPVTKSFNRGEC
B5: TR01H113-E2702GsKsc/GCH094-E2704sEpsc/L0011-k0 (bispecific antibody, human IgG4 S228P, kappa, N297A)
heavy 1: QVQLVESGGGVVQPGGSLRLSCAASGFTFSNAWMHWVRQAPGKGLEWVAQIKDKSQNYATYVAESVKGRFTISRADSKNSIYLQMNSLKTEDTAVYYCRYVHYAAGYGVDIWGQGTTVTVSSASTKGPSVFPLAPCSRSTSESTAALGCLVKDYFPEPVTVSWNSGALTSGVHTFPAVLQSSGLYSLSSVVTVPSSSLGTKTYTCNVDHKPSNTKVDKRVESKYGPPCPPCPAPEFRGGPKVFLFPPKPKDTLMISRTPEVTCVVVDVSQEDPEVQFNWYVDGVEVHNAKTKPREEQFASTYRVVSVLTVLHQDWLNGKEYKCKVSNKGLPSSIEKTISKAKGQPREPQVYTLPPSQKEMTKNQVSLTCLVKGFYPSDIAVEWESNGQPENNYKTTPPVLDSDGSFFLYSKLTVDKSRWQEGNVFSCSVMHEALHNRYTQKSLSLSP
heavy 2: QVQLVQSGAEVKKPGASVTVSCKASGYTFTDYEMHWVRQAPGEGLEWMGAIDGETPDTAYSEKFKGRVTLTADKSTSTAYMELSSLTSEDTAVYYCTRFYSYTYWGQGTLVTVSSASTKGPSVFPLAPCSRSTSESTAALGCLVKDYFPEPVTVSWNSGALTSGVHTFPAVLQSSGLYSLSSVVTVPSSSLGTQTYTCNVDHKPSNTKVDKRVESKYGPPCPPCPAPEFRGGPKVFLFPPKPKDTLMISRTPEVTCVVVDVSQEDPEVQFNWYVDGVEVHNAKTKPREEQFASTYRVVSVLTVLHQDWLNGKEYKCKVSNKGLPSSIEKTISKAKGQPREPQVYTLPPSQEEMTKNQVSLTCLVKGFYPSDIAVEWESNGQPENNYKTTPPVLDSDGSFFLYSKLTVDKSRWQEGNVFSCSVMHEALHNHYTQESLSLSP
light: DIVMTQSPLSLPVTPGEPASISCRSSQPLVHSNRNTYLHWYQQKPGQAPRLLIYKVSNRFSGVPDRFSGSGSGTDFTLKISRVEAEDVGVYYCGQGTQVPYTFGQGTKLEIKRTVAAPSVFIFPPSDEQLKSGTASVVCLLNNFYPREAKVQWKVDNALQSGNSQESVTEQDSKDSTYSLSSTLTLSKADYEKHKVYACEVTHQGLSSPVTKSFNRGEC

In this test the target is extracellular matrix (ECM; BD Matrigel). In words: ECL on Matrigel-coated plate, signal divided by that of MRAH-G1d/MRAL-k0.
With B1, the ECM binding ratio (standard = 1) (ratio to standard antibody) was found to be 3.3.

On to B2, for which the ECM binding ratio (standard = 1) (ratio to standard antibody) was 1.3.

B3: the ECM binding ratio (standard = 1) (ratio to standard antibody) amounted to 2.5.

Take B4: the ECM binding ratio (standard = 1) (ratio to standard antibody) turned out to be 1.7.

On to B5, for which the ECM binding ratio (standard = 1) (ratio to standard antibody) was found to be 1.6.

The values above are taken from US20170267783A1 (published 2017).
